Changes are numbered by the printed parent chain. Names and notes keep the numbering of the source.
B1: STAT1cc (STAT1 core fragment, A656C and N658C, locked dimer), tag-free, P42224 D674A (protein)
chain: MSQWYELQQLDSKFLEQVHQLYDDSFPMEIRQYLAQWLEKQDWEHAANDVSFATIRFHDLLSQLDDQYSRFSLENNFLLQHNIRKSKRNLQDNFQEDPIQMSMIIYSCLKEERKILENAQRFNQAQSGNIQSTVMLDKQKELDSKVRNVKDKVMCIEHEIKSLEDLQDEYDFKCKTLQNREHETNGVAKSDQKQEQLLLKKMYLMLDNKRKEVVHKIIELLNVTELTQNALINDELVEWKRRQQSACIGGPPNACLDQLQNWFTIVAESLQQVRQQLKKLEELEQKYTYEHDPITKNKQVLWDRTFSLFQQLIQSSFVVERQPCMPTHPQRPLVLKTGVQFTVKLRLLVKLQELNYNLKVKVLFDKDVNERNTVKGFRKFNILGTHTKVMNMEESTNGSLAAEFRHLQLKEQKNAGTRTNEGPLIVTEELHSLSFETQLCQPGLVIDLETTSLPVVVISNVSQLPSGWASILWYNMLVAEPRNLSFFLTPPCARWAQLSEVLSWQFSSVTKRGLNVDQLNMLGEKLLGPNASPDGLIPWTRFCKENINDKNFPFWLWIESILELIKKHLLPLWNDGCIMGFISKERERALLKDQQPGTFLLRFSESSREGAITFTWVERSQNGGEPDFHAVEPYTKKELSAVTFPDIIRNYKVMAAENIPENPLKYLYPNIDKAHAFGKYYSRPKEAPEPMELDGPKGTGYIKTELISVSEVHPSRLQTTDNLLPMSPEEFDEVSRIVGSVEFDSMMNTV
B2: STAT1cc (STAT1 core fragment, A656C and N658C, locked dimer), tag-free, P42224 R619A (protein)
chain: B1 chain with R619A, A674D
B3: STAT1cc (STAT1 core fragment, A656C and N658C, locked dimer), tag-free, P42224 K652A (protein)
chain: B1 chain with K652A, A674D
B4: STAT1cc (STAT1 core fragment, A656C and N658C, locked dimer), tag-free, P42224 S620A (protein)
chain: B1 chain with S620A, A674D
B5: STAT1cc (STAT1 core fragment, A656C and N658C, locked dimer), tag-free, P42224 E657A (protein)
chain: B1 chain with E657A, A674D
B6: STAT1cc (STAT1 core fragment, A656C and N658C, locked dimer), tag-free, P42224 E625A (protein)
chain: B1 chain with E625A, A674D
B7: STAT1cc (STAT1 core fragment, A656C and N658C, locked dimer), tag-free, P42224 K665A (protein)
chain: B1 chain with K665A, A674D
B8: STAT1cc (STAT1 core fragment, A656C and N658C, locked dimer), tag-free, P42224 N622A (protein)
chain: B1 chain with N622A, A674D
B9: STAT1cc (STAT1 core fragment, A656C and N658C, locked dimer), tag-free, P42224 Q594A (protein)
chain: B1 chain with Q594A, A674D
B10: STAT1cc (STAT1 core fragment, A656C and N658C, locked dimer), tag-free, P42224 D627A (protein)
chain: STVMLDKQKELDSKVRNVKDKVMCIEHEIKSLEDLQDEYDFKCKTLQNREHETNGVAKSDQKQEQLLLKKMYLMLDNKRKEVVHKIIELLNVTELTQNALINDELVEWKRRQQSACIGGPPNACLDQLQNWFTIVAESLQQVRQQLKKLEELEQKYTYEHDPITKNKQVLWDRTFSLFQQLIQSSFVVERQPCMPTHPQRPLVLKTGVQFTVKLRLLVKLQELNYNLKVKVLFDKDVNERNTVKGFRKFNILGTHTKVMNMEESTNGSLAAEFRHLQLKEQKNAGTRTNEGPLIVTEELHSLSFETQLCQPGLVIDLETTSLPVVVISNVSQLPSGWASILWYNMLVAEPRNLSFFLTPPCARWAQLSEVLSWQFSSVTKRGLNVDQLNMLGEKLLGPNASPDGLIPWTRFCKENINDKNFPFWLWIESILELIKKHLLPLWNDGCIMGFISKERERALLKDQQPGTFLLRFSESSREGAITFTWVERSQNGGEPAFHAVEPYTKKELSAVTFPDIIRNYKVMACECIPENPLKYLYPNIDKDHAFGKYYSRPKEAPEPMELDGPKGTGYIKTELISVSEVH
B11: STAT1cc (STAT1 core fragment, A656C and N658C, locked dimer), tag-free, P42224 E661A (protein)
chain: B10 chain with A496D, E530A

Biological target: T1, 6XHis-tagged TgIST-R2 (G365-S420)
T1 chain: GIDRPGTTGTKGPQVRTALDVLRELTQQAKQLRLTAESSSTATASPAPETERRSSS
Test: nickel affinity copurification, SDS-PAGE, Coomassie blue band quantification
Settings: chain shown with the change;; parent: est. 1.0; read off a plot
B1 showed a ratio to parent of 0.9. B2 was tested, and the ratio to parent was 0.62. B3 was tested, and the ratio to parent was 0.4. With B4 the ratio to parent was 0.8. With B5 the ratio to parent was 0.71. Work on B6 yielded a ratio to parent of 0.75. For B7, the ratio to parent was 0.7. In the case of B8, the ratio to parent is reported as 0.71. Work on B9 yielded a ratio to parent of 0.79. Work on B10 yielded a ratio to parent of 0.04. In the case of B11, the ratio to parent is reported as 0.61.

The molecules below were run against GST-tagged TgIST-R2 (Toxoplasma gondii (type I strain GT1)) (assay: BLI; GST-tagged TgIST-R2 loaded on anti-GST biosensors, pSTAT1d or pSTAT1d-linker-R2 in solution; kinetic buffer (ForteBio), 25 °C; apparent avidity, 1:2 model). Settings: not given.
“phosphorylated STAT1 dimer (pSTAT1d), STAT1 core domain S132-H713 (from UniProt P42224 132-713) (domain or fragment)” showed a Kd of 22 nM.

What follows are molecules tested against STAT1cc (STAT1 core fragment, A656C and N658C, locked dimer), tag-free (UniProt P42224) (assay: nickel affinity copurification, SDS-PAGE, Coomassie blue band quantification). Settings: parent: est. 1.0; read off a plot.
6XHis-tagged TgIST-R2 (G365-S420) E388A gave a ratio to parent of 1.1. In the case of 6XHis-tagged TgIST-R2 (G365-S420) Q378A, the ratio to parent is reported as 0.83. 6XHis-tagged TgIST-R2 (G365-S420) R387A gave a ratio to parent of 0.03. 6XHis-tagged TgIST-R2 (G365-S420) L386A was tested, and the ratio to parent was 0.02. For “6XHis-tagged TgIST-R2 (G365-S420) R416A; R417A”, the ratio to parent was 0.98. Molecule “6XHis-tagged TgIST-R2 (G365-S420) Q391A; Q392A” has a ratio to parent of 0.99. For 6XHis-tagged TgIST-R2 (G365-S420) T381A, the ratio to parent was 0.38. 6XHis-tagged TgIST-R2 (G365-S420) Q392A showed a ratio to parent of 0.91. 6XHis-tagged TgIST-R2 (G365-S420) Q391A was tested, and the ratio to parent was 1.1. 6XHis-tagged TgIST-R2 (G365-S420) L383A was tested, and the ratio to parent was 0.01. Work on 6XHis-tagged TgIST-R2 (G365-S420) D384A yielded a ratio to parent of 0.57.

The molecules below were run against phosphorylated STAT1 dimer (pSTAT1d), STAT1 core domain S132-H713 (human) (UniProt P42224) (assay: BLI; His-tagged pSTAT1d or STAT1 monomer loaded on Ni-NTA biosensors, TgIST-R2 proteins in solution; kinetic buffer (ForteBio), 25 °C; 1:1 model for the constant). Settings: not given.
“TgIST-R2 peptide after GST removal (domain or fragment)” gave a Kd of 330 nM.

From paper PMC9279507
